Experiment [1] has as its system GFP-positive and Snail-positive B16-F10 tumor cells. In words: In vivo, intraperitoneal administration, Snail-positive B16-F10 bone metastasis model (Example 18). Further details: species or system mouse. The conditions noted are these: intraperitoneal 10 mg/kg on days 5 and 10; day 14. An excerpt: (§1) 1. Experiment Group (n=5) • 1. No treatment (0.9% NaCl as a sham) • 2. Control IgG (anti-DNP) • 3. Anti-FSTL1 Clone #6-55 • 4. Anti-FSTL1 Clone #7-34 • 5. Anti-FSTL1 Clone #8-1 […]
• Effects on the growth of subcutaneous tumor (calculation of tumor volume by tumor size measurement): measured 7, 11, and 14 days after tumor implantation (FIG. 42B) • Effects on bone metastasis (GFP-positive tumor cells in bone marrow or the spleen) (FIGS. 42A and 42C) • Effects on MSC expansion (CD45-negative cells in bone marrow or the spleen) (FIGS. 42A and 42C) • Effects on weight loss (FIG. 42A) • Effects on the expansion of immunosuppressive Treg cells (CD4-positive and Foxp3-positive cells in the spleen) (FIG. 42C) • Other immunosuppressive properties (FIG. 42C)
(§2) In Example 17, the antibody was administered into tumor according to the purpose of “inhibiting metastasis from a primary focus to bone” as previously conducted by the present inventors. […] Specifically, antitumor effects and immunosuppression-mitigating effects were comparatively analyzed by the intraperitoneal administration (systemic administration) of the anti-FSTL1 antibody using bone metastasis models in which mouse melanoma cells (B16-F10) forced to express Snail were subcutaneously and intravenously transplanted in C57BL/6N mice. […]

The subject of experiment [2] is mouse melanoma cells (B16-F10) forced to express Snail. The experiment is described as above. Further details: species or system C57BL/6N mice. Conditions: intraperitoneal 10 mg/kg on days 5 and 10; day 14.
Source text: 1. Experiment Group (n=5) • 1. No treatment (0.9% NaCi as a sham) • 2. Control IgG (anti-DNP) • 3. Anti-FSTL1 Clone #6-55 • 4. Anti-FSTL1 Clone #7-34 • 5. Anti-FSTL1 Clone #8-1 […]
• Effects on the growth of subcutaneous tumor (calculation of tumor volume by tumor size measurement): measured 7, 11, and 14 days after tumor implantation (FIG. 12B) • Effects on bone metastasis (GFP-positive tumor cells in bone marrow or the spleen) (FIGS. 12A and 12C) • Effects on MSC expansion (CD45-negative cells in bone marrow or the spleen) (FIGS. 12A and 12C) • Effects on weight loss (FIG. 12A) • Effects on the expansion of immunosuppressive Treg cells (CD4-positive and Foxp3-positive cells in the spleen) (FIG. 12C) • Other immunosuppressive properties (FIG. 12C)
as §2

Experiment [3] concerns GFP-positive and Snail-positive B16-F10 tumor cells. Put plainly: Snail-positive B16-F10 bone metastasis model, intraperitoneal administration (Example 18). It is filed as in vivo, mouse. The conditions noted are these: intraperitoneal 10 mg/kg on days 5 and 10; FIG. 106A.
Source text: as §1
• Effects on the growth of subcutaneous tumor (calculation of tumor volume by tumor size measurement): measured 7, 11, and 14 days after tumor implantation (FIG. 106B) • Effects on bone metastasis (GFP-positive tumor cells in bone marrow or the spleen) (FIGS. 106A and 106C) • Effects on MSC expansion (CD45− negative cells in bone marrow or the spleen) (FIGS. 106A and 106C) • Effects on weight loss (FIG. 106A) • Effects on the expansion of immunosuppressive Treg cells (CD4-positive and Foxp3-positive cells in the spleen) (FIG. 106C) • Other immunosuppressive properties (FIG. 106C)
as §2

For the next experiment, the system named is mouse melanoma B16-F10. Put plainly: Mouse melanoma B16-F10 model, subcutaneous and intravenous transplantation (Example 22). Conditions: intraperitoneal 10 mg/kg on days 3 and 6; FIG. 110. It is filed as in vivo. On the procedure:
The drug efficacy of the anti-FSTL1 antibody was evaluated according to Examples 17 to 20 using other cancer-bearing models of C57BL/6 mice of the same strain as in Snail-positive tumor bone metastasis models. The “mouse melanoma B16-F10” is a parent line of the cell line forced to express Snail, which was transplanted in the bone metastasis models used in the preceding tests.
1. Experiment Group (n=5) • 1. Mouse melanoma B16-F10+control IgG (anti-DNP mAb) • 2. Mouse melanoma B16-F10+anti-FSTL1 mAb (#6-55)
• Day 0: transplantation of tumor cells (1×10^6 cells subcutaneously & 1×10^6 cells intravenously) • Day 3: intraperitoneal administration of the antibody (first dose, corresponding to 200 μg/mouse=10 mg/kg) • Day 6: intraperitoneal administration of the antibody (second dose, corresponding to 200 μg/mouse=10 mg/kg) • Day 15 various immunological assays
• Effects on the growth of subcutaneous tumor (calculation of tumor volume by tumor size measurement): measured 6, 10, and 14 days after tumor implantation (FIG. 110A) • Effects on weight loss (FIG. 110B)

The text below walks through data of patent US20180021429A1, “ANTICANCER AGENTS OR ANTIMETASTATIC AGENTS USING FSTL1 AND COMBINATION DRUG THEREOF” (PHARMA FOODS INTERNATIONAL CO., LTD., priority 2015, published 2018).

B1: #8-1: chicken-mouse chimeric anti-FSTL1 antibody clone; variable regions SEQ ID NO: 791 (light), 793 (heavy) (antibody, V domains shown)
VH: AVTLDESGGGLQTPGGALSLVCKGSGFTFSSFNMFWVRQAPGKGLEWVAGIGKDGVPKYGAAVDGRATISKDNGQSTMRLQLNNLRAEDTGTYFCAKAAGGCSYDWCGIYAGDIDTWGHGTEVIVSS
VL: ASTQPSSVSANPGEAVKITCSGGSGSYYGWYQQKSPGSAPVTVIYNNNQRPSDIPSRFSGSKSGSTATLTITGVQAEDEAVYFCGGYDSSSGHGGIFGAGTTLTVL
modifications: mouse constant regions
Consider B1, for which, in experiment [1], the “effect on weight loss (mouse body weight)” value is on record as “anti-weight loss effect”. Moreover, the anti-weight loss effect entry was “an anti-weight loss effect (right graph of FIG. 12A) was confirmed” in experiment [2] and “confirmed” in experiment [3].

B2: #6-55: chicken-mouse chimeric anti-FSTL1 antibody clone; variable regions SEQ ID NO: 783 (light), 785 (heavy) (antibody, V domains shown)
VH: AVTLDESGGGLQTPGGALSLVCKGSGFTFTSVTMQWVRQAPGKGLEWVASVCSGSSTYYAPAVKGRATISRDNGQSTVRLQLSNLRPEDTGTYYCAKIAGRARWSCTSAAYNIDAWGHGTEVIVSS
VL: ASTQPSSVSAIPGETVKITCSGGGNNYGWYQQRSPGSAPVTVIYYNDNRPSNIPSRFSGSTSGSTSTLTITGVQADDEAIYYCGSWDSNTDSGIFGAGTTLTVL
modifications: mouse constant regions
In the case of B2, in experiment [1], the “effect on weight loss (mouse body weight)” value was “anti-weight loss effect”. The anti-weight loss effect entry in experiment [2] is “an anti-weight loss effect (right graph of FIG. 12A) was confirmed”; in experiment [3] it was “confirmed”. The subcutaneous tumor growth entry with mouse melanoma B16-F10 was “strongly suppressed”. Moreover, in the experiment with mouse melanoma B16-F10, the weight loss result is recorded as “suppressive activity against weight loss was also exhibited”.
